Experimental findings from patent US20190282654A1 are described below.

Bridge positions count the residues as written; N and C are the ends. Square brackets hold non-standard residues; d marks the D form. Primed or numbered codes have the meaning given here. Ends that are not written are not given here. 2Nal = N[C@@H](Cc1ccc2ccccc2c1)C(=O)O; BMB″ = not defined here

Experiment [1] concerns the target NEMO (endogenous, in NF-κB reporter (Luc)-HEK293 cells), Q9Y6K9. The experiment can be described thus: cell-based or functional assay.
Experiment [2] deals with T1, GST-NEMO(1-196), Q9Y6K9.
T1 chain: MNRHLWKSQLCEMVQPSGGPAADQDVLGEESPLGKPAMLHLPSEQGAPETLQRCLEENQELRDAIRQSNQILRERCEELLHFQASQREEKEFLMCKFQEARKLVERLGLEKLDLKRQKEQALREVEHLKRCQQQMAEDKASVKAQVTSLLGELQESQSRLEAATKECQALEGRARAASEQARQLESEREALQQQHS
The experiment can be described thus: HTRF competition: GST-NEMO (30 nM) + biotin-IKKβKK/RR(701-745) (50 nM), 5 mM TCEP.

B1: bicyclic peptide 4 (peptide)
peptide: RRRR[2Nal]FCALDWSWLQC
modifications: linker 7-16 via BMB″ (inferred); not fully specified (bridges); reading uncertain
With B1, in experiment [1], the TNFα-induced luciferase activity, NF-κB reporter (Luc)-HEK293 cells, IC50 came out at 20 µM. Further, in experiment [2], the IC50 (as a rule, the midpoint of a concentration-inhibition curve) is 3.5 µM.
